Reference: a protein production outcome set (Wang et al. 2014)

Test: label from the status in PepcDB records

Sequence | protein production
MKDFWTWERLSFHMVLAYNDDRSFLINTGMPLDLTLRNQEMKKFAGDRAIFRSEDSIEMLRKAGFTPDDIDYVALTPVQDYTIGRLNEFRKSKIFIFRDGWIKDIAAPAYAYFHNRDLFIPKNIFDFVYGEGWKNIIFYDGETELVPGIRAIPVGCHHRSSVAFAINAKDGTYVFTDASFKAENVRNRIPIGIAENIYECLSAYEKIEKIGKLLPAYDPAIDDLYIKLEHHHHHH | not failed
GDGLKVSFDVTNTGKVAGADTPQLYVTSGQRKAMLRLAGFQKVDLAPGETKRVTLNVEPRILADYDTAKPGWTIAAGTYPLYVGRNAGEPVLTGSAKLKSWSR | failed
MEFSGRKWRKLRLAGDQRNASYPHCLQFYLQPPSENISLIEFENLAIDRVKLLKSVENLGVSYVKGTEQYQSKLESELRKLKFSYRENLEDEYEPRRRDHISHFILRLAYCQSEELRRWFIQQEMDLLRFRFSILPKDKIQDFLKDSQLQFEAISDEEKTLREQEIVASSPSLSGLKLGFESIYKIPFADALDLFRGRKVYLEDGFAYVPLKDIVAIILNEFRAKLSKALALTARSLPAVQSDERLQPLLNHLSHSYTGQDYSTQGNVGKISLDQIDLLSTKSFPPCMRQLHKALRENHHLRHGGRMQYGLFLKGIGLTLEQALQFWKQEFIKGKMDPDKFDKGYSYNIRHSFGKEGKRTDYTPFSCLKIILSNPPSQGDYHGCPFRHSDPELLKQKLQSYKISPGGISQILDLVKGTHYQVACQKYFEMIHNVDDCGFSLNHPNQFFCESQRILNGGKDIKKEPIQPETPQPKPSVQKTKDASSALASLNSSLEMDMEGLEDYFSEDS | failed
MTSVLEKRHAPKQRAEAQRALTGEDFVGDEAPGKDLPSRPRLDPAEFIKANMGLVPVLALPEIRFYTAHPGSGLRRLVDPEDDADADDDTPEPQPPYWAYAWAGGAVLARHILNHPKTVAGRRVLDLGAGSGIVGIAAAKAGASEVIAAEIDRNGVAAIGLNAAANGVEITIVHQDITMGSPPAVDLVLAGDVFYGREVALRVIPFLDRCLAAGIEVLVGDPRRHDLPLSRLRLLAEYQVPDFGDAKDAALKPSGVFRFEAETAPALAGAIKPSP | failed
MARVLVSSPSSFFGSPLIKPSSSLRHSGVGGGGTAQFLPYRSNNNKLFTTSTTVRFSLNEIPPFHGLDSSVDIGAIFTRAESLLYTIADAAVVGADSVVTTDSSAVQKSGGWFGFISDAMELVLKILKDGLSAVHVPYAYGFAIILLTIIVKAATYPLTKQQVESTLAMQNLQPKIKAIQQRYAGNQERIQLETSRLYKQAGVNPLAGCLPTLATIPVWIGLYQALSNVANEGLFTEGFFWIPSLGGPTSIAARQSGSGISWLFPFVDGHPPLGWYDTVAYLVLPVLLIASQYVSMEIMKPPQTDDPAQKNTLLVFKFLPLMIGYFALSVPSGLSIYWLTNNVLSTAQQVYLRKLGGAKPNMDENASKIISAGRAKRSIAQPDDAGERFRQLKEQEKRSKKNKAVAKDTVELVEESQSESEEGSDDEEEEAREGALASSTTSKPLPEVGQRRSKRSKRKRTV | failed
MSLELPFSNQSIIPAAHNQKDMEKILELDLTYMVMLETHVAQLKALVKYAQAGGKKVLLHADLVNGLKNDDYAIDFLCTEICPDGIISTRGNAIMKAKQHKMLAIQRLFMIDSSAYNKGVALIQKVQPDCIELLPGIIPEQVQKMTQKLHIPVIAGGLIETSEQVNQVIASGAIAVTTSNKHLWEGHHHHHH | not failed
MQDTLPSRREIAPDSTRPPPTHDDVRAQLNRIITSPQFPHIGRSAAFLTYAVEETLAGRADRIKGYSIAVEVFKRSNGFTQDDPVVRIEAGRLRRVLERYYFTAGQHDPIRIDIPKGGYVPTFAWTSPSEDNSDAEDQSLPPEHASSLFPGLRRHIWTVVLGLIVIVGGASALAGLTSIRFSSIWPFATADITESDGPTLVIAPFANLGDGPQAELYTTGLTEELLTALPRFKEIKVFGRETSRSLPPEVETSRIRGELGARFLLAGGVRVSGSRVRVTARLLDTQTDEILWSQTYDDDIGVRDLFTIQSDVANKVATAVAQPYGIMAQADVSNPPPDDLGSYGCTLSFYAYRAELSIERHGEVRNCLESAVARYPSFATAWAMLSIIYLDEDRFRFNRKPISSTPIDRSFQAARRAVQLDPGNTRALQALMTTLFFSQRVSEALQIGERALATNPNDTELLAEFGTRLAMSGEWQRGAALLDRAIALNPAGGGYYRGTRALAAYMLHDDKTAVIEIRQADLQKFPLFHAVAAVIYVDAGMIDDARSEAARFNEMRPDFIPNIVAELKVRNFQPQDRARMIADLRTAGLLVRDEVQATMSLPIDDSKALQPR | failed
MPVMQSRIIHLSVEKPWAEVYDFAANPGNMPRWAAGLAGGLEADGEDWIAKGGPLGEVRVNFAPHNEFGVIDHVVTLPDGLKVYNALRVTPNGSGTEVSFTLLRLEGMTDEDFEQDASAITADLEMLKSLLEAD | not failed
MKYLAAYLLLVQGGNAAPSAADIKAVVESVGAEVDEARINELLSSLEGKGSLEEIIAEGQKKFATVPTGGASSAAAGAAGAAAGGDAAEEEKEEEAKEESDDDMGFGLFD | failed
MYINKFVPVYTLLILIYSFNASAEWTGDNTNAYYSDEVISELHVGQIDTSPYFCIKTVKANGSGTPVVACAVSKQSIWAPSFKELLDQARYFYSTGQSVRIHVQKNIWTYPLFVNTFSANALVGLSSCSATQCFGPK | failed
MSLGRFVRHALITAGTKGLGKQVTEKLLAKGYSVTVTYHSDTTAMETMKETYKDVEERLQFVQADVTKKEDLHKIVEEAMSHFGKIDFLINNAGPYVFERKKLVDYEEDEWNEMIQGNLTAVFHLLKLVVPVMRKQNFGRIINYGFQGADSAPGWIYRSAFAAAKVGLVSLTKTVAYEEAEYGITANMVCPGDIIGEMKEATIQEARQLKEHNTPIGRSGTGEDIARTISFLCEDDSDMITGTIIEVTGAVDVIHREGHHHHHH | not failed
MEGLLIDYVQPGSIAEELEIEAGDRLVAINGQDLRDIIDFSFYAHDEELALEIVKPSGDHWEAEIERDGDEPLGLVFAPPVPAQCGNKCVFCFVHQLPKGLRRPLYVKDEDYRLSFLYGNYVTLSNIRRGDLDRIVAQRLSPLYISVHATNPALRERLLGRSEILPILDLMRELAAARIVMHSQIVLCPGLNDGVELEKTVRDLAGLHPWVESLAIVPIGLTKHRRGLPALEPVTASYAETFVQNWQPAAERLERELGAPFLFIADEFYIKAGLPFPPLETYGDLPQIENGVGMIPLFLDESERVLKKARKGKPVTVTVVTGESPYRYLAAFLERLSVRTGATFKPVAVHNRLFGESVTVTGLVAGSDIVEELSGRDLGDAVLVPDVMLKEGEGIFLDDLSVDGLGKSLGTRVLVVEATPQGVVDALRRVRSMLEHHHHHH | failed
MVEAPPPELRILSAGDSSYSGSGWSRVPHVWLRDEIRLSGEPRVRQGKREGDRRFRGRGRDRGRWHLGCPRKALFSNLLGTVYRCGNLNFSRDGNSVISPVGNRVTVFDLKNNRSDTLPLATKYNIKCVGLSPDGRLAIIVDEGGAALLVSLVCRSVLHHFHFKGSVHSVSFSPDGRKFVITKGNIAQMYHAPGKKREFNAFVLDKTYFGPYDETTCIDWTDDSKCFVVGSKDMSTWVFGAERWDNLIYYALSGHKDAIVACFFESNSLDLYSLSQDGALCVWQCDTPPEGLRLKAPRGWKADILQREKEEEEEEDEEGEGNRETTIRGKAVPAEQERVGKVKYSRLAKYFLNKEGDFNNLTAAAYHKKTHLLVTGFASGIFHLHELPEFNLIHSLSISDQRVASVAINSSGDWIAFGCSGLGQLLVWEWQSESYVLKQQGHFNSMVALAYSPDGQYIVTGGDDGKVKVWNTLSGFCFVTLTEHSSGVTGVTFTATGHVIVTSSLDGTVRAYDLHRYRNFRTFTSPRPTQFSCVAVDSSGEIVSAGAQDSFEIFVWSMQTGRLLDVLSGHEGPISGLCFNPMKSILASASWDKTVRLWDMFDSWRTKETLSLTSDVLAVTYRPDGAELAVATLNSQITFWDPENAVQVGSIEGRHDLKTGRKELDKITAKHSAKGKAFTTVCYSADGQNILAGGMSKFVCLYHVREQILVKRFELSCNFSLDAMEEFLNRRKMTEFGNLALIDQDAGEENGVAIPLPGVRKGDMSSRHFKPEIRVTSLRFSPTGRCWAATSTEGLLIFSLDAQMLFDPFELDTSVTPGRIREALRQREFTRAILMAFRLNEKKLAQEALEAVPQNEIEVVSASLPELYVVKVLEFLAASFEESRHLEFYLIWTQKLLMSHGQRLKSRAGQLLPVVQFLQKGLQRHLDDISKLCDWNRYNIQYALAVSKQRGMKRTLEPVDTEEDTDASDEDSLHLLRAAEEEEEGMLV | failed
MIHSRTILVPTLLFQLALALPLAAGADSRCDDAKRLAATIPVQADGDTTRKTEDVVLESCADGAAGYFVRGLRAERAGRHDEAIKDYREALRLEPAFPRAQGNLGLALLAKGSHDDAVVELTRAISSDPDPGYHHGLAMIFGQRKIYSLALYHYAEAAKGLPADPVIPTELAALYREMGKVSDAEKQYRKALSLSPSHEEARVGLASLYMAEGRTDRAIEELKQAQIASPGNKEVSSLLAEAYEKKGDRQAADYQSLLAGKQRGVLSDERLRRGDELMQAKEYAKAAEEFKAALREKPDWPEALMRLAEAQTAAGFDDEAITSYKELIRLKLGTGDTHYNLGVLYERKGLIDEAVVEYKQAIHSSPDNGDARRRLADIYALRGSYPQAIEQYRELLKKGDNNPVLHLKLARALLGAKNPKEAMASYQDALKIAPDNLEARRELAALYRKGNQNEEAEKQYKEILRIKKDDAEARNILTALYVKSKKYDELITLLKDGVELAPNDPASHYKLGLIYEFKKDYDAAEQEYKKAVELKGDHAKSLNALGRIYLKTGKISEAKGALEAAKKADPGMEETAVLLSNIKEELSPEPPRYSKKGRKGKASKEAKKSRASKKKSSKKGAKATSKKSSTKSGGKAKKAKKSH | failed
MRFNYPPDGVSQLIASRWKIGVALALAVLLFFAFLVLLPLADGIVLGIVFAYIARPIQVKFGKYRKIGALIASLFIFIPIVFIVGAGVVEILNQISWIFENQTSVMSGILDFIHGLEIPSTYVERINNAIWNLFTSLLPAVGSVGLISYAQSIGLFVINFIVSIFFCYFLLADGDRLYCAFIGMIPSDYQNIVNRYASHLDLILKGVFIGNAYSALIVSVTSVFVFRAFGFSHVLALATLVFIASVIPLFAGYMVLVPMALFRYFEQGFQSAALFFVVSSLVIYGPPELILRPFLTSLKSKIHPMLLMLAFLGGAFVGGIAGFFAAPILLGALVAAYRVYQEQIHPELVAQADVYLKDPAKACRTDEKNSFQ | failed
MQMNNHIRLRKAEGKWVIRTDSAVLGETLNAIELTEGSRDPVIYFPREDVAMVMFDKSEKVTACPLKGEASYYSIVGASGTLKDAAWSYESPKEGLEAIAGYLAFAPDCTKVGQY | not failed
SEVRWCATSDPEQHKCGNMSEAFREAGIQPSLLCVRGTSADHCVQLIAAQEADAITLDGGAIYEAGKEHGLKPVVGEVYDQEVGTSYYAVAVVRRSSHVTIDTLKGVKSCHTGINRTVGWNVPVGYLVESGRLSVMGCDVLKAVSDYFGGSCVPGAGETSYSESLCRLCRGDSSGEGVCDKSPLERYYDYSGAFRCLAEGAGDVAFVKHSTVLENTDGKTLPSWGQALLSQDFELLCRDGSRADVTEWRQCHLARVPAHAVVVRADTDGGLIFRLLNEGQRLFSHEGSSFQMFSSEAYGQKDLLFKDSTSELVPIATQTYEAWLGHEYLHAMKGLLCDPNRLPPYLRWCVLSTPEIQKCGDMAVAFRRQRLKPEIQCVSAKSPQHCMERIQAEQVDAVTLSGEDIYTAGKKYGLVPAAGEHYAPEDSSNSYYVVAVVRRDSSHAFTLDELRGKRSCHAGFGSPAGWDVPVGALIQRGFIRPKDCDVLTAVSEFFNASCVPVNNPKNYPSSLCALCVGDEQGRNKCVGNSQERYYGYRGAFRCLVENAGDVAFVRHTTVFDNTNGHNSEPWAAELRSEDYELLCPNGARAEVSQFAACNLAQIPPHAVMVRPDTNIFTVYGLLDKAQDLFGDDHNKNGFKMFDSSNYHGQDLLFKDATVRAVPVGEKTTYRGWLGLDYVAALEGMSSQQC | not failed
MDVKKDENSILENMKQEINHSLKEEAQEEEEILKKRISSHPLYGLLLHSHLNCLKVCSGDFDSPEIMNTADDLALSKLSLHPDSSSEATSSELDQFMVLFFFSPCQNIFTQQKTTFHVLLFFPLQINLTFKYSKFILPRKKQ | failed
